The values below come from patent US20230374153A1 (PARADIGM IMMUNOTERAPEUTICS, published 2023).

In assay [1] the target is T1, FcRn (neonatal Fc receptor) (UniProt P55899 24-297; P61769 21-119).
T1 construct: also called FCGRT; purified FcRn receptor
Kind of assay: SPR (Biacore, ACRO Biosystems), pH 6.0. In general terms: Surface plasmon resonance follows binding to a sensor surface in real time, without labels.

Assay [2] addresses T1, FcRn (neonatal Fc receptor).

Residue numbers refer to the chain shown, from its start.

T1 sequence (P55899 24-297 limits assumed, chain 1 of 2): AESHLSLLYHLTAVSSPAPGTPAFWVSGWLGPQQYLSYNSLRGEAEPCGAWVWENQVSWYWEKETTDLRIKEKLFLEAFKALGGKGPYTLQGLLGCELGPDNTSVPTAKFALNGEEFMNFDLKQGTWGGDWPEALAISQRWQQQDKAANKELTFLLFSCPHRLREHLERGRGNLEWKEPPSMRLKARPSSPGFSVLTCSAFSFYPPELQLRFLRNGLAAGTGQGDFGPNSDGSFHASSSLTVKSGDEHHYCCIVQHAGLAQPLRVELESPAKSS
T1 sequence (P61769 21-119 limits assumed, chain 2 of 2): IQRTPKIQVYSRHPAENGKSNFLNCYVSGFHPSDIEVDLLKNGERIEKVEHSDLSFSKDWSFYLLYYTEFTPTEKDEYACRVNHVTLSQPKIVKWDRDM

B1: ACE2 LVE IgG Fc STR chimeric antibody (LiVE) (Fc fusion)
chain: QSTIEEQAKLFLDKFNVEAEDLFYQSSLASWNYNTNITEENVQNMNNAGDKWSAFLKEQSTLAQMYPLQEIQELTVKLQLQALQQNGSSVLSEDKSKRLNTILNTMSTIYSTGKVCNPDNPQECLLLEPGLNEIMANSLDYNERLWAWESWRSEVGKQLRPLYEEYVVLKNEMARANHYEDYGDYWRGDYEVNGVDGYDYSRGQLIEDVEHTFEEIKPLYEHLHAYVRAKLMNAYPSYISPIGCLPAHLLGDMWGRFWTNLYSLTVPFGQKPNIDVTDAMVDQAWDAQRIFKEAEKFFVSVGLPNMTQGFWENSMLTDPGNVQKAVCHPTAWDLGKGDFRILMCTKVTMDDFLTAHHEMGHIQYDMAYAAQPFLLRNGANEGFHEAVGEIMSLSAATPKHLKSIGLLSPDFQEDNETEINFLLKQALTIVGTLPFTYMLEKWRWMVFKGEIPKDQWMKKWWEMKREIVGVVEPVPHDETYCDPASLFHVSNDYSFIRYYTRTLYQFQFQEALCQAAKHEGPLHKCDISNSTEAGQKLFNMLRLGKSEPWTLALENVVGAKNMNVRPLLNYFEPLFTWLKDQNKNSFVGWSTDWSPYADQSIKVRISLKSALGDKAYEWNDNEMYLFRSSVAYAMRQYFLKVKNQMILFGEEDVRVANLKPRISFNFFVTAPKNVSDIIPRTEVEKAIRMSRSRINDAFRLNDNSLEFLGIQPTLGPPNQPPVSGGGGSGGGGSDKTHTCPPCPAPESTRGPSVFLFPPKPKDTLMISRTPEVTCVVVDVSHEDPEVKFNWYVDGVEVHNAKTKPREEQYNSTYRVVSVLTVLHQDWLNGKEYKCKVSNKALPAPIEKTISKAKGQPREPQVYTLPPSRDELTKNQVSLTCLVKGFYPSDIAVEWESNGQPENNYKTTPPVLDSDGSFFLYSKLTVDKSRWQQGNVFSCSVMHEALHNHYTQKSLSLSPGK
In assay [1], B1 came in with a Kd of 517 nM. In other words, the sub-micromolar range.

B2: ACE2 LVE IgG Fc STR YTE chimeric antibody (LiVE Longer) (Fc fusion)
chain: B1 chain with M765Y, S767T, T769E
In the case of B2, in assay [2], the koff amounted to 0.00412 s⁻¹ and the kon was 155000 M⁻¹ s⁻¹. In addition, the Kd in assay [1] is 26.7 nM.

A word on the Kd: it is the concentration at which binding is half-saturated. A higher Kd goes with lower affinity. For orientation: koff means the first-order rate constant of dissociation. Low values mean a long-lived complex, high ones a short-lived complex. By kon is commonly meant the second-order rate constant of association.
